Measured values published in US20230330249A1, “ANTIBODY-CONJUGATED CHEMICAL INDUCERS OF DEGRADATION OF BRM AND METHODS THEREOF” (Genentech, Inc., priority 2020, published 2023).
Changes are numbered by the printed parent chain. Numbers in names are those of the source.

B1: Thio Hu Anti-TfR1.NG2LH.FcRn null high DAR [HC:L174C HC:Y373C LC:K149C] MC-sqCit BRM CIDE Ab-L1-CIDE-BRM1-13 (conjugate)
heavy: EVQLVQSGAEVKKPGASVKVSCKASGYTFTSYWMHWVRQAPGQRLEWIGEINPTNGRTNYIEKFKSRATLTVDKSASTAYMELSSLRSEDTAVYYCARGTRAYHYWGQGTMVTVSSASTKGPSVFPLAPSSKSTSGGTAALGCLVKDYFPEPVTVSWNSGALTSGVHTFPAVCQSSGLYSLSSVVTVPSSSLGTQTYICNVNHKPSNTKVDKKVEPKSCDKTHTCPPCPAPPVAGPSVFLFPPKPKDTLMISRTPEVTCVVVDVSHEDPEVKFNWYVDGVEVHNAKTKPREEQYGSTYRVVSVLTVLHQDWLNGKEYKCKVSNKALPAPIEKTISKAKGQPREPQVYTLPPSREEMTKNQVSLTCLVKGFCPSDIAVEWESNGQPENNYKTTPPVLDSDGSFFLYSKLTVDKSRWQQGNVFSCSVMHEALHNHYTQKSLSLSPGK
light: DIQMTQSPSSLSASVGDRVTITCRASDNLYSNLAWYQQKPGKSPKLLVYDATNLADGVPSRFSGSGSGTDYTLTISSLQPEDFATYYCQHFWGTPLTFGQGTKVEIKRTVAAPSVFIFPPSDEQLKSGTASVVCLLNNFYPREAKVQWCVDNALQSGNSQESVTEQDSKDSTYSLSSTLTLSKADYEKHKVYACEVTHQGLSSPVTKSFNRGEC
B2: Thio Hu Anti-TfR2.NG2LH high DAR [HC:L174C HC:Y373C LC:K149C] diMe Me disulfide BRM degrader phos Ab-L1-CIDE-BRM1-9 (conjugate)
heavy: B1 heavy
light: B1 light with W92A

Columns and labels:
Lysosomal release assay = format: in vitro ADME, human; settings: pH 5.5, 24 h; for Release in lysosomal extract: 10 μM linker-drug, human liver lysosomes 0.17 mg/mL, cysteine 5 mM, 37° C.
From the text: Lysosomal release assays were run to measure the release of the degrader from the L1 moeity in an environment that mimics intracellular milieu. For the degrader to be active at binding BRM and ferrying it to the ubiquitin ligase, the L1 must first be released.
The assay was run using an L1 bound to the BRM-binding compound, named “L1-BRM1-#” that corresponds to the respective CIDE. The test determine whether cleavage of the covalent attachment of the L1 to the BRM portion occurred. Linker-drugs ([…]) were incubated with human liver lysosomes (0.17 mg/mL) and cysteine (5 mM) in 100 mM citric acid buffer pH 5.5 for 24 h. The samples were analyzed by Q Exactive Orbitrap mass specrometers using LC mobile phase containing (A) 0.1% formic acid in water and (B) 0.1% formic acid in acetonitrile in a gradient.

BRM [1] = target: T1, BRM (Homo sapiens, UniProt P51531); assay: Cell assay to determine DC50 and Dmax (nuclear BRM immunofluorescence), NCI-H1944 cells; format: cell-based; settings: 24 h drug treatment, nuclear BRM signal
T1 construct: endogenous in cells; host or cells: HCC515
Protocol: (§1) Cell based assays were run in […] cell lines to determine the DC50 and Dmax of Ab-L1-CIDE. BJAB, HCC515 and H1944 cells were plated in 384 well plates at 5000, 4000 and 2500 cells/well, respectively. The next day Ab-CIDEs were added. Following 24 h of drug treatment the cells were fixed with 4% formaldehyde for 15 minutes. The plates were washed three time with PBS. The cells were incubated with IF blocking solution (10% FCS, 1% BSA, […] in PBS). After 1.5 h a 2× solution of primary antibody diluted in IF blocking buffer: BRM (Cell signaling Cat #11966, 1:2000) was added. The plates were incubated over night at 4° C. The following morning cells were washed three time with PBS. Cells were then incubated with secondary antibodies (rabbit-Alexa 488 A21206 (1:2000)) for 1 h at room temperature in the dark. Hoechst H3570 at 1:5000 was added to the wells and the plates were incubated for an additional 30 minutes. Plates were wash 3×PBS and image on Opera Phenix™ High Content Screening System. Using nuclear staining as a mask, nuclear BRM mean signal intensity was quantified.
(§2) The data evidence the successful antibody targeting strategies disclosed herein.

BRM [2] = target: T1, BRM; assay: Cell assay to determine DC50 and Dmax (nuclear BRM immunofluorescence), HCC515 cells; format: cell-based; settings: 24 h drug treatment, nuclear BRM signal
Protocol: as §1, §2

T1 sequence (P51531 whole entry): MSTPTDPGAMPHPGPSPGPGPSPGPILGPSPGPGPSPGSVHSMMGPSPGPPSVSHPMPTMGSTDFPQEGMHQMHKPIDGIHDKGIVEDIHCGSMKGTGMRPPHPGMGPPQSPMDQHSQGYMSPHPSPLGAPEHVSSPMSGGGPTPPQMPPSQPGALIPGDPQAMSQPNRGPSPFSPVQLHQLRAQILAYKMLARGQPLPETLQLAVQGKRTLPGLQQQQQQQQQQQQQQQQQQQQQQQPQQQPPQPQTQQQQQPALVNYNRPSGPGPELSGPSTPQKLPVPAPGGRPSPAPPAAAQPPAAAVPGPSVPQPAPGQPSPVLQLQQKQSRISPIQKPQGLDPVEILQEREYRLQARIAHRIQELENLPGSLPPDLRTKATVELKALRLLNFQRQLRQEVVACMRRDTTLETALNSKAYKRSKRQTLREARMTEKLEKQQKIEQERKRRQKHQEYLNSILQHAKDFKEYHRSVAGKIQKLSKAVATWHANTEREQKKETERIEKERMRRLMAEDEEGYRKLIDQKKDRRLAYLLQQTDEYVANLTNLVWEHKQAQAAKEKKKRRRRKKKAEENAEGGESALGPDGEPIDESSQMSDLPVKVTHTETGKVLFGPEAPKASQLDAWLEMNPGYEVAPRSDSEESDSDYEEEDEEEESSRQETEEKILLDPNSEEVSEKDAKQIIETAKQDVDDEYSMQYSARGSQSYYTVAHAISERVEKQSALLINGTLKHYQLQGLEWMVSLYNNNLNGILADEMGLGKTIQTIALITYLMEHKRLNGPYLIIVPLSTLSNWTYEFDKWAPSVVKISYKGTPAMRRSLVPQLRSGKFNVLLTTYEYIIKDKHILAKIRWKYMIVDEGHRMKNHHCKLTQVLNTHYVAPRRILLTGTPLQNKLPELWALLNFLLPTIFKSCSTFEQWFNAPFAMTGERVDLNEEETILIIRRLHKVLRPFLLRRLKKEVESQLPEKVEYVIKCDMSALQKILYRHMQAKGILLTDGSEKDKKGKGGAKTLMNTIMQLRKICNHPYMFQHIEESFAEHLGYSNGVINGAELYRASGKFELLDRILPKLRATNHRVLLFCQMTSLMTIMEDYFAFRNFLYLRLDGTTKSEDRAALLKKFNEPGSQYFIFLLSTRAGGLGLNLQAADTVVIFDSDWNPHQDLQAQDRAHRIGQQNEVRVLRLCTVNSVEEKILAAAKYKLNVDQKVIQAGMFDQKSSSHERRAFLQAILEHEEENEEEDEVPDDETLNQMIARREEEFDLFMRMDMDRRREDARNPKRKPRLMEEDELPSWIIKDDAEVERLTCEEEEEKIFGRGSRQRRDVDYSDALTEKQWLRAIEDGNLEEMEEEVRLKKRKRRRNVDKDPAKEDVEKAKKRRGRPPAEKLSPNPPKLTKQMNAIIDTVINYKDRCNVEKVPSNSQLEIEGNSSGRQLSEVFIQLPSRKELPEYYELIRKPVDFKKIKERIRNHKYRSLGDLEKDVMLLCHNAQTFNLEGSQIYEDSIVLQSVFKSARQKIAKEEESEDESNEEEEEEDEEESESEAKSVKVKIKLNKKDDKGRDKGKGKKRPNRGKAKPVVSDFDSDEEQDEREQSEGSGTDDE

Row | Molecule | Release in lysosomal extract (Lysosomal release assay) | NCI-HI944 DC50 (BRM [1]) [µg/mL] | NCI-HI944 Dmax (BRM [1]) | also measured
1 | Cc1ncsc1-c1ccc([C@H](C)NC(=O)[C@@H]2C[C@@H](O)CN2C(=O)[C@@H](c2cc(OCCN3CCN(CCOc4cc(N5C6CCC5CN(c5cc(-c7ccccc7OS(=O)(=O)Oc7cc(C(=O)NCCOCCOCCOCCn8cc(COCCOCCOCCOCCNC(=O)CCN9C(=O)C=CC9=O)nn8)ccc7O[C@@H]7O[C@H](CO)[C@H](O)[C@H](O)[C@H]7O)nnc5N)C6)ccn4)[C@H](C)C3)no2)C(C)C)cc1 [L1-CIDE-BRM1-15] | – | – | – | Release of the degrader in lysosomal extracts (Lysosomal release assay; human liver lysosomes): did not release the degrader
2 | Cc1ncsc1-c1ccc([C@H](C)NC(=O)[C@@H]2C[C@@H](O)CN2C(=O)[C@@H](c2cc(OCCN3CCN(CCOc4cc(N5C6CCC5CN(c5cc(-c7ccccc7O)nnc5NC(=O)OCc5ccc(NC(=O)[C@H](CCCNC(N)=O)NC(=O)C7(C(=O)NCCCCCN8C(=O)C=CC8=O)CCC7)cc5)C6)ccn4)[C@H](C)C3)no2)C(C)C)cc1 [L1-BRM1-20] | Yes (“Yes” indicates >50% free drug observed after 24 h incubation at 37 °C in lysosomal extract.) | – | – | –
3 | Cc1ncsc1-c1ccc([C@H](C)NC(=O)[C@@H]2C[C@@H](O)CN2C(=O)[C@@H](c2cc(OCCN3CCN(CCOc4cc(N5C6CCC5CN(c5cc(-c7ccccc7OCc7ccc(NC(=O)[C@H](CCCNC(N)=O)NC(=O)C8(C(=O)NCCCCCN9C(=O)C=CC9=O)CCC8)cc7)nnc5N)C6)ccn4)[C@H](C)C3)no2)C(C)C)cc1 [L1-BRM1-13] | Yes (“Yes” indicates >50% free drug observed after 24 h incubation at 37 °C in lysosomal extract.) | – | – | –
4 | Cc1ncsc1-c1ccc([C@H](C)NC(=O)[C@@H]2C[C@@H](OC(=O)OC(C)C(C)(C)SS(C)(=O)=O)CN2C(=O)[C@@H](c2cc(OCCN3CCN(CCOc4cc(N5C6CCC5CN(c5cc(-c7ccccc7OCOP(=O)(O)O)nnc5N)C6)ccn4)[C@H](C)C3)no2)C(C)C)cc1 (stereo partly shown) [L1-BRM1-9] | Yes (“Yes” indicates >50% free drug observed after 24 h incubation at 37 °C in lysosomal extract.) | – | – | –
5 | B1 | – | 0.07 | 77 | –
6 | B2 | – | 0.74 | 94 | HCC515 DC50 (BRM [2]): 0.12 µg/mL; HCC515 Dmax (BRM [2]): 96
